# According to patent US20100291160A1, “PHARMACEUTICAL SYSTEM FOR TRANS-MEMBRANE DELIVERY” (priority 2009, published 2010):
# Structures can show the parent of a compound that is named as a salt.
# How the values were obtained:
# [1] = in vivo sublingual administration to rats, active agent in plasma by HPLC; parameters: species or system Sprague Dawley rats; conditions: sublingual experimental formulation in rats; ng/mL in serum relative to ng/mL in serum from published studies (conventional control dose)
# Description: Formulations comprising a variety of active agents were also tested in vivo. A […] volume/400 g animal formulation was administered sublingually to rats (Sprague Dawley rats, with jugular catheters were purchased from Charles River Laboratories). All rats were in the 275-300 g weight range.
# All dose formulations were prepared on the day of dosing. Prior to dose administration, each rat was anesthetized with ketamine:xylazine (7:1, 60 mg/kg, IM) and positioned (supine) so that the head and shoulders were in alignment to preclude drainage of the dose into the trachea or esophagus. The mouth was opened and the interior (including under the tongue) was swabbed with dry cotton applicators. The tongue was held up and the dose was dispensed (same technician for all applications) into the sublingual pocket. The tongue was allowed to return to a normal position and the mouth was allowed to close.
# Blood samples were drawn via catheter or cardiac puncture either 10 minutes following administration, or over a time range including 30 seconds, 1 minute, 5 minutes and 15 minutes following administration. The concentration (ng/mL) of the active agent in rat plasma was calculated using high powered liquid chromatography (HPLC). Efficiency was calculated as (ng/mL administered active agent in serum)/(ng/mL active agent in serum from published studies).
# [2] = in vitro diffusion of formulation across membrane mounted on vial; assay type: in vitro ADME, pig or sheep; conditions: for Optimal pH Conditions with Experimental Formulation: pH found to produce rapid diffusion across the membrane, pH adjusted with sodium bicarbonate or citric acid
# Excerpt: A flat section of either pig or sheep intestinal membrane is mounted across the open top of the vial. A screw top having a 7 mm hole (approximate) is then screwed to the vial, thereby securing the membrane to the vial. The vial is inverted and immersed in an isotonic solution (e.g., saline). Diffusion of the formulation is then allowed to proceed. The isotonic solution may be agitated with a magnetic stirrer. A pipette is used to sampling the saline solution at designated time intervals (e.g., 5, 10, 30, 60, 90, 180, and 600 seconds).
# Other membranes may be used, including commonly available natural casing for food preparation, or cell culture human membranes (e.g. membranes from MatTek Corporation; Ashland, Mass.). […] Samples may contain vitamin B12 and arginine. The pH of the formulation may be adjusted as necessary.
# The following compounds were analyzed in in vitro tests and the pH of the solutions were adjusted to the values noted below with either sodium bicarbonate (solid) or citric acid to produce the desired testing pH solutions.
Molecule,Observed Plasma Levels [1],Optimal pH Conditions with Experimental Formulation [2],also measured
CCCc1nn(C)c2c(=O)[nH]c(-c3cc(S(=O)(=O)N4CCN(C)CC4)ccc3OCC)nc12 [Sildenafil],–,pH 6.8,–
"CC[C@H](C)[C@H](NC(=O)[C@H](CCC(=O)O)NC(=O)[C@H](CO)NC(=O)[C@@H](NC(=O)[C@@H](N)CO)C(C)C)C(=O)N[C@@H](CCC(N)=O)C(=O)N[C@@H](CC(C)C)C(=O)N[C@@H](CCSC)C(=O)N[C@@H](Cc1cnc[nH]1)C(=O)N[C@@H](CC(N)=O)C(=O)N[C@@H](CC(C)C)C(=O)NCC(=O)N[C@@H](CCCCN)C(=O)N[C@@H](Cc1cnc[nH]1)C(=O)N[C@@H](CC(C)C)C(=O)N[C@@H](CC(N)=O)C(=O)N[C@@H](CO)C(=O)N[C@@H](CCSC)C(=O)N[C@@H](CCC(=O)O)C(=O)N[C@@H](CCCN=C(N)N)C(=O)N[C@H](C(=O)N[C@@H](CCC(=O)O)C(=O)N[C@@H](Cc1c[nH]c2ccccc12)C(=O)N[C@@H](CC(C)C)C(=O)N[C@@H](CCCN=C(N)N)C(=O)N[C@@H](CCCCN)C(=O)N[C@@H](CCCCN)C(=O)N[C@@H](CC(C)C)C(=O)N[C@@H](CCC(N)=O)C(=O)N[C@@H](CC(=O)O)C(=O)N[C@H](C(=O)N[C@@H](Cc1cnc[nH]1)C(=O)N[C@@H](CC(N)=O)C(=O)N[C@@H](Cc1ccccc1)C(=O)O)C(C)C)C(C)C [Teriparatide (rDNA Origin), Teriparatide]",–,pH 6.8,–
Adalimumab,–,pH 7.7,–
Enoxaparin Sodium,–,pH 8.0 to 6.0,–
Etanercept,–,pH 8,rate of absorption ([2]; at lower pH values (than approximately 8.0)): dramatically reduced by at least a factor of five times; transport of the drug after elimination of each of the cofactors of the formulation ([2]; in most tests): slight to substantial decreases; pH at which transport occurred ([2]; in vitro membrane test of Example 3): 8 pH; rates of membrane transport ([2]; pH adjusted to approximately 8.0): substantially increased
"Neupogen: a filgrastim (e.g., G-CSF, Neupogen) (protein, UniProt P09919 31-207, looked up, filgrastim) Granulocyte …: TPLGPASSLPQSFLLKCLEQVRKIQGDGAALQEKLVSECATYKLCHPEELVLLGHSLGIPWAPLSSCPSQALQLAGCLSQLHSGLFLYQGLLQALEGISPELGPTLDTLQLDVADFATTIWQQMEELGMAPALQPTQGAMPAFASAFQRRAGGVLVASHLQSFLEVSYRVLRHLAQP",–,pH 7.4,–

# Continued, in another order:
Observed Plasma Levels [1],Molecule,Optimal pH Conditions with Experimental Formulation [2],also measured
136.00%,CCCC[C@H](NC(C)=O)C(=O)N[C@H]1CC(=O)NCCCC[C@@H](C(=O)O)NC(=O)[C@H](Cc2c[nH]c3ccccc23)NC(=O)[C@H](CCCN=C(N)N)NC(=O)[C@@H](Cc2ccccc2)NC(=O)[C@H](Cc2cnc[nH]2)NC1=O [Bremelanotide],pH 6.0 to 8.0,–
0 to 600%,CNC[C@H](O)c1ccc(O)c(O)c1 [Epinephrine],pH 5.0 to 7.0,–
169.00%,CCCc1nn(C)c2c(=O)[nH]c(-c3cc(S(=O)(=O)N4CCN(C)CC4)ccc3OCC)nc12 [sildenafil citrate],–,–
